Among the data in article PMC4416707 are stoichiometry N values, retold here.

What all share (assay): SEC; size exclusion chromatography of the purified LOV constructs under dark state conditions; apparent MW compared with the expected monomer MW of 17 kDa
Assay [1] addresses McLOVn-TF residues 337-490 (isolated LOV domain of the Methylocystis LOV transcription factor) (Methylocystis Rockwall).
Assay [2] has as its target Methylocystis short LOV protein McLOVn (Methylocystis Rockwall).
Assay [3] concerns the target Methylocystis rosea short LOV protein McLOVr (Methylocystis rosea).

On to “McLOVn-TF residues 337-490 (isolated LOV domain of the Methylocystis LOV transcription factor) (domain or fragment)”, for which the stoichiometry N in assay [1] came out at 2. Consider “Methylocystis short LOV protein McLOVn (natural protein)”, for which the stoichiometry N in assay [2] amounted to 2. For the substance “Methylocystis rosea short LOV protein McLOVr (natural protein)”, the stoichiometry N in assay [3] came to 2.
